Measured values published in patent US20030087866.

Target: T1, purified recombinant R2 protein, P11157
T1 chain: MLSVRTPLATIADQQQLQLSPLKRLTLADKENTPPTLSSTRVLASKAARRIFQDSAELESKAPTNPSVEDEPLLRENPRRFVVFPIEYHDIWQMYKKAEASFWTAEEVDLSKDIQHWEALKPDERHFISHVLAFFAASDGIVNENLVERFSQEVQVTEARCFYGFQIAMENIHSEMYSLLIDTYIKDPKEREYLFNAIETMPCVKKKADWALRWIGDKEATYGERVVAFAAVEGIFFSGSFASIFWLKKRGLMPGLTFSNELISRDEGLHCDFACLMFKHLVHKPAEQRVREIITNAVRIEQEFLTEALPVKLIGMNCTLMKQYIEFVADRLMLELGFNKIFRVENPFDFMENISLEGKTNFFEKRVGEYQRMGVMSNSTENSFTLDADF

B1: human Myc epitope-tagged mouse ribonucleotide reductase R1 protein (protein)
chain: EQKLISEEDLMHVIKRDGRQERVMFDKITSRIQKLCYGLNMDFVDPAQITMKVIQGLYSGVTTVELDTLAAETAATLTTKHPDYAILAARIAVSNLHKETKKVFSDVMEDLYNYINPHNGRHSPMVASSTLDIVMANKDRLNSAIIYDRDFSYNYFGFKTLERSYLLKINGKVAERPQHMLMRVSVGIHKEDIDAAIETYNLLSEKWFTHASPTLFNAGTNRPQLSSCFLLSMKDDSIEGIYDTLKQCALISKSAGGIGVAVSCIRATGSYIAGTNGNSNGLVPMLRVYNNTARYVDQGGNKRPGAFAIYLEPWHLDIFEFLDLKKNTGKEEQRARDLFFALWIPDLFMKRVETNQDWSLMCPNECPGLDEVWGEEFEKLYESYEKQGRVRKVVKAQQLWYAIIESQTETGTPYMLYKDSCNRKSNQQNLGTIKCSNLCTEIVEYTSKDEVAVCNLASLALNMYVTPEHTYDFEKLAEVTKVIVRNLNKIIDINYYPIPEAHLSNKRHRPIGIGVQGLADAFILMRYPFESPEAQLLNKQIFETIYYGALEASCELAKEYGPYETYEGSPVSKGILQYDMWNVAPTDLWDWKPLKEKIAKYGIRNSLLIAPMPTASTAQILGNNESIEPYTSNIYTRRVLSGEFQIVNPHLLKDLTERGLWNEEMKNQIIACNGSIQSIPEIPDDLKQLYKTVWEISQKTVLKMAAERGAFIDQSQSLNIHIAEPNYGKLTSMHFYGWKQGLKTGMYYLRTRPAANPIQFTLNKEKLKDKEKALKEEEEKERNTAAMVCSLENREECLMCGS
B1 was tested, and the “ribonucleotide reductase activity of the 9E10-immunoprecipitated R1 combined with purified recombinant R2” value was “enzyme activity of 15.4±2.0 pmoles/mg/hr was detected when C1/mR1 cells (Table 1) were used as a source of recombinant R1”.
